# Columns and labels:
# GST-EL (IP3R) = target: T1, GST-EL (IP3R) (Mus musculus, UniProt P11881, N1264K); test: [3H]IP3 binding to GST-EL
# T1 construct: construct a GST-IP3R1 (1-2217) vector (termed GST-EL); made in house; host or cells: GST-EL: Sf9 cells; His-IRBIT: Sf9 cells or E. coli
# Protocol: (A) 0.2 μg of GST-EL was incubated with 0.1, 1, or 10 μg of purified His-tagged IRBIT expressed in Sf9 cells or E. coli in a solution containing 50 mM Tris-HCl (pH 8.0), 1 mM EDTA, and 1 mM 2-mercaptoethanol, for 30 min on ice. Then 8.7 nM [^3H]IP3 (PerkinElmer Life Sciences) was added to the samples and incubated for 10 min on ice (total volume was 50 μl). The samples were mixed with 2 μl of 50 mg/ml γ-globulin and 50 μl of 30% PEG6000, 50 mM Tris-HCl (pH 8.0), and incubated for 5 min on ice. Non-specific binding was measured in the presence of 10 μM cold IP3. After centrifugation at 20,000×g for 5 min, the precipitate was dissolved in SOLVABLE™ (Packard) and the radioactivity was measured with a liquid scintillation counter (Beckman Coulter). Results are shown as the mean±S.D. from three independent experiments. (B) Purified His-IRBIT expressed in Sf9 cells was incubated with alkaline phosphatase for 30 min at 37° C. prior to the IP3 binding assay described as in (A). (C and D) Scatchard analysis. 0.1 μg of GST-EL was incubated with or without 1 μg of purified His-tagged IRBIT expressed in Sf9 cells as described in (A). Then 2.17 nM [^3H]IP3 and 2-500 nM cold IP3 were added to the samples and incubated for 10 min on ice (total volume was 100 μl). Non-specific binding was measured in the presence of 10 μM cold IP3. [^3H]IP3 binding to GST-EL was measured as described in (A).
# The effect of IRBIT on binding of IP3 to IP3R was examined. GST-EL (0.2 μg) was incubated with 0.1, 1, or 10 μg of purified His-tagged IRBIT expressed in Sf9 cells or E. coli in a solution containing 50 mM Tris-HCl (pH 8.0), 1 mM EDTA, and 1 mM 2-mercaptoethanol, for 30 min on ice. Then 8.7 nM [^3H]IP3 (PerkinElmer Life Sciences) was added to the samples and incubated for 10 min on ice (total volume was 50 μl). The samples were mixed with 2 μl of 50 mg/ml γ-globulin and 50 μl of 30% PEG6000, 50 mM Tris-HCl (pH 8.0), and incubated for 5 min on ice. Non-specific binding was measured in the presence of 10 μM cold IP3. After centrifugation at 20,000×g for 5 min, the precipitate was dissolved in SOLVABLE™ (Packard) and the radioactivity was measured with a liquid scintillation counter (Beckman Coulter). […] 0.1 μg of GST-EL was incubated with or without 1 μg of purified His-tagged IRBIT expressed in Sf9 cells as described in (A). Then 2.17 nM [^3H]IP3 and 2-500 nM cold IP3 were added to the samples and incubated for 10 min on ice (total volume was 100 μl). Non-specific binding was measured in the presence of 10 μM cold IP3. [^3H]IP3 binding to GST-EL was measured as described in (A). […] Bmax was not changed.
# [1] = S-adenosylhomocysteine hydrolase activity in the hydrolytic direction; format: biochemical; settings: recombinant protein expressed in Escherichia coli; hydrolysis direction
# Protocol: The S-adenosylhomocysteine hydrolase activity in the hydrolytic direction of recombinant IRBIT-His (open circle), GST-IRBIT (triangle), GST (square), and S-adenosylhomocysteine hydrolase (closed circle) were measured according to the known method (43). Results are shown as the mean±standard deviation from three independent experimental results.
# To assay S-adenosylhomocysteine hydrolase activity in the hydrolytic direction, the color developed by the reaction between the product (Homocysteine) and 5,5′-dithiobis (2-nitrobenzoic acid) (Sigma) was measured spectroscopically using the purified IRBIT-His (3.0 μg), GST-IRBIT (4.3 μg), GST (1.3 μg) and rabbit S-adenosylhomocysteine hydrolase (Sigma) (2.4 μg), according to the known method (43). Absorbance at 412 nm was measured 0, 5, 20 and 60 minutes later using a DU 640 spectrophotometer (Beckman). Results are shown as the mean±standard deviation from three independent experiments (FIG. 2).
# [2] = 1 μg His-tagged IRBIT (Sf9), 0.1 μg GST-EL
# T1 sequence (P11881 1-2217 N1264K): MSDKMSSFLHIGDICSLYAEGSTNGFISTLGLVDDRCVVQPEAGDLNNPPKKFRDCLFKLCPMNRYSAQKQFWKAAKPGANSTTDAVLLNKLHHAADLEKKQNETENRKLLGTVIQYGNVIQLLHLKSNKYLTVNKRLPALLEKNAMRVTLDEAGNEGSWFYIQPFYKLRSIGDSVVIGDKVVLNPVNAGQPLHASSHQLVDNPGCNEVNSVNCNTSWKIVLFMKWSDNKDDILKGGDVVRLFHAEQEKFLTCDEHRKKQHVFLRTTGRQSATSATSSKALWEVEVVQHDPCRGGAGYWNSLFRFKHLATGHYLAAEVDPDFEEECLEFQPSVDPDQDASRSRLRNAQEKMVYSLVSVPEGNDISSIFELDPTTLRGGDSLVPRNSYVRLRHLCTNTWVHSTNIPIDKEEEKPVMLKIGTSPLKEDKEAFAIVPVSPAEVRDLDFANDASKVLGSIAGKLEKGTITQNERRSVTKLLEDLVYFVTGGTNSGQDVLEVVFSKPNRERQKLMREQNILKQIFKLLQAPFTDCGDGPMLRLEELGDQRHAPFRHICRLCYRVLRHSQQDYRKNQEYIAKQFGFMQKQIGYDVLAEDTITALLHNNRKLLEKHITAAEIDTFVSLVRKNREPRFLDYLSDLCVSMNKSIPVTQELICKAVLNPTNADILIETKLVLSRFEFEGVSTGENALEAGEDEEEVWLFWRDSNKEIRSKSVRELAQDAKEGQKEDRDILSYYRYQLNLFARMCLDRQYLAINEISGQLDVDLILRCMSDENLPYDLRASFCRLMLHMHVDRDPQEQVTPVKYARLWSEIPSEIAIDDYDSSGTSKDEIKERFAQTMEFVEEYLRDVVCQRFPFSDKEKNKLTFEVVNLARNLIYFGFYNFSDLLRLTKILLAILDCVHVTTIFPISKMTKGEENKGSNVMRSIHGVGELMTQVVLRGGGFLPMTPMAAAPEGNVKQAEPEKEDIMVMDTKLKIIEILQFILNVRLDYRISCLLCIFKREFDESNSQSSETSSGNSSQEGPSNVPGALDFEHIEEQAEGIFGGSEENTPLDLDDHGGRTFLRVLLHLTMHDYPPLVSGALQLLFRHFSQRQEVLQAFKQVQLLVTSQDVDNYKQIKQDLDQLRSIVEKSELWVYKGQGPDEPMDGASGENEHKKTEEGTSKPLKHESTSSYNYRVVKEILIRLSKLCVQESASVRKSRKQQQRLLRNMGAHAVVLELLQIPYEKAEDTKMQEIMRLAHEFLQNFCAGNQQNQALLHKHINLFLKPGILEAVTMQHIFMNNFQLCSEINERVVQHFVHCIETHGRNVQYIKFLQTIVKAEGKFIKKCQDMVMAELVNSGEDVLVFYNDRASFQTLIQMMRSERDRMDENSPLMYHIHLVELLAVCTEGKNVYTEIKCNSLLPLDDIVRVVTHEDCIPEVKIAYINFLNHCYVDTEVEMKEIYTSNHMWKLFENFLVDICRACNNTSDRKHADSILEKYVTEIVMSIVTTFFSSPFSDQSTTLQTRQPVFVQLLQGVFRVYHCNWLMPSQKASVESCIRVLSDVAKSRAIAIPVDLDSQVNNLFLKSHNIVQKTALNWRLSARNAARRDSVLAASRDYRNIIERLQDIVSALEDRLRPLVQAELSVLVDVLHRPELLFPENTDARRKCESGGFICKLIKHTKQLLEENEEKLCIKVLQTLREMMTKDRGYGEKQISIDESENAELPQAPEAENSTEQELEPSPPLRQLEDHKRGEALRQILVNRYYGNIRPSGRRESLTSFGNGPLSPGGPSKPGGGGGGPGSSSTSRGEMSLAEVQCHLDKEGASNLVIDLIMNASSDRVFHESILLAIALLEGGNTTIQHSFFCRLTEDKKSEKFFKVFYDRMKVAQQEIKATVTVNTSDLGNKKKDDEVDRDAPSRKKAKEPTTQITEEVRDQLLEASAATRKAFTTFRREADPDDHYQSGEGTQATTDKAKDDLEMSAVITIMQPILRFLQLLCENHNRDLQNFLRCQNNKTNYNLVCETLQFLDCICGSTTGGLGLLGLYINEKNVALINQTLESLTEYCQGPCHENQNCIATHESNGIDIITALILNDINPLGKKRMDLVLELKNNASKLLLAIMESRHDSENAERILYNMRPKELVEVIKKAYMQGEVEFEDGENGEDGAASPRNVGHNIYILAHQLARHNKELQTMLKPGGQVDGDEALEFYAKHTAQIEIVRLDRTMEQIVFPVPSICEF
Bmax (Scatchard analysis) (GST-EL (IP3R); [2]),affinity of GST-EL to IP3 (Scatchard analysis) (GST-EL (IP3R); [2]),"effect on IP3 binding of GST-EL (GST-EL (IP3R); 0.1, 1 or 10 μg His-tagged IRBIT expressed in Sf9, 8.7 nM [3H]IP3)",Molecule,S-adenosylhomocysteine hydrolase activity [1]
not changed,decreased the affinity,dose-dependently suppressed,"His-IRBIT: purified His-tagged IRBIT expressed in Sf9 cells (protein, left off: small tags and cut ends, purified His-tagged IRBIT expressed in Sf9 cells) MSMPDAMPLPGVGEELKQAKEIEDAEKYSFMATVTKAPKKQIQFADDMQEFTKFPTKTGRRSLSRSISQSSTDSYSSAASYTDSSDDEVSPREKQQTNSKGSSNFCVKNIKQAEFGRREIEIAEQDMSALISLRKRAQGEKPLAGAKIVGCTHITAQTAVLIETLCALGAQCRWSACNIYSTQNEVAAALAEAGVAVFAWKGESEDDFWWCIDRCVNMDGWQANMILDDGGDLTHWVYKKYPNVFKKIRGIVEESVTGVHRLYQLSKAGKLCVPAMNVNDSVTKQKFDNLYCCRESILDGLKRTTDVMFGGKQVVVCGYGEVGKGCCAALKALGAIVYITEIDPICALQACMDGFRVVKLNEVIRQVDVVITCTGNKNVVTREHLDRMKNSCIVCNMGHSNTEIDVTSLRTPELTWERVRSQVDHVIWPDGKRVVLLAEGRLLNLSCSTVPTFVLSITATTQALALIELYNAPEGRYKQDVYLLPKKMDEYVASLHLPSFDAHLTELTDDQAKYLGLNKNGPFKPNYYRY",–
–,–,–,"IRBIT-His: C-terminally His-tagged full-length IRBIT expressed in Escherichia coli (protein, UniProt O43865 1-530, looked up, full-length C-terminal His tag, C-terminally His-tagged full-length IRBIT expressed in Escherichia coli) MSMPDAMPLPGVGEELKQAKEIEDAEKYSFMATVTKAPKKQIQFADDMQEFTKFPTKTGRRSLSRSISQSSTDSYSSAASYTDSSDDEVSPREKQQTNSKGSSNFCVKNIKQAEFGRREIEIAEQDMSALISLRKRAQGEKPLAGAKIVGCTHITAQTAVLIETLCALGAQCRWSACNIYSTQNEVAAALAEAGVAVFAWKGESEDDFWWCIDRCVNMDGWQANMILDDGGDLTHWVYKKYPNVFKKIRGIVEESVTGVHRLYQLSKAGKLCVPAMNVNDSVTKQKFDNLYCCRESILDGLKRTTDVMFGGKQVVVCGYGEVGKGCCAALKALGAIVYITEIDPICALQACMDGFRVVKLNEVIRQVDVVITCTGNKNVVTREHLDRMKNSCIVCNMGHSNTEIDVTSLRTPELTWERVRSQVDHVIWPDGKRVVLLAEGRLLNLSCSTVPTFVLSITATTQALALIELYNAPEGRYKQDVYLLPKKMDEYVASLHLPSFDAHLTELTDDQAKYLGLNKNGPFKPNYYRY",neither of the recombinant IRBITs had enzyme activity
–,–,–,"GST-IRBIT: N-terminally GST-tagged full-length IRBIT expressed in Escherichia coli (protein, UniProt O43865 1-530, looked up, full-length N-terminal GST tag, N-terminally GST-tagged full-length IRBIT expressed in Escherichia coli) MSMPDAMPLPGVGEELKQAKEIEDAEKYSFMATVTKAPKKQIQFADDMQEFTKFPTKTGRRSLSRSISQSSTDSYSSAASYTDSSDDEVSPREKQQTNSKGSSNFCVKNIKQAEFGRREIEIAEQDMSALISLRKRAQGEKPLAGAKIVGCTHITAQTAVLIETLCALGAQCRWSACNIYSTQNEVAAALAEAGVAVFAWKGESEDDFWWCIDRCVNMDGWQANMILDDGGDLTHWVYKKYPNVFKKIRGIVEESVTGVHRLYQLSKAGKLCVPAMNVNDSVTKQKFDNLYCCRESILDGLKRTTDVMFGGKQVVVCGYGEVGKGCCAALKALGAIVYITEIDPICALQACMDGFRVVKLNEVIRQVDVVITCTGNKNVVTREHLDRMKNSCIVCNMGHSNTEIDVTSLRTPELTWERVRSQVDHVIWPDGKRVVLLAEGRLLNLSCSTVPTFVLSITATTQALALIELYNAPEGRYKQDVYLLPKKMDEYVASLHLPSFDAHLTELTDDQAKYLGLNKNGPFKPNYYRY",neither of the recombinant IRBITs had enzyme activity

# Source: patent US20050181450A1, “Novel inositol 1,4,5-trisphosphate (IP3) receptor-binding protein and an IP3 indicator” (priority 2002, published 2005)
